Data: US20260102461A1 (AIKIUM, published 2026)

T1: KAAG1 disordered region peptide, PGAAAAHLPRWPPPQLAASRREA (biotin (position not given))
T1 peptide: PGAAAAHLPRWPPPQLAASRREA

T2: CD74 disordered region peptide (CLIP), PPKPVSKMRMATPLLMQALPMGALP (biotin (position not given))
T2 peptide: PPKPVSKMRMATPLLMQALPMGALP

T3: GMERKFMSLQPSISVSEMEPNGTFSNNNSRNCTIENFKREFFP (biotinylated, position not given)
T3 peptide: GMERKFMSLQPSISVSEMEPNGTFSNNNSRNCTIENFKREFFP

T4: CYSLTR2 Epitope SISVSEMEPNGTFSNNNSRNC (N-terminally biotinylated)
T4 peptide: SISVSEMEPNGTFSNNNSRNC

T5: Urotensin-2 receptor (UR-II-R) disordered region, MALTPESPSSFPGLAATGSSVPEPPGGPNATLNSSWASPTEPSSLEDLVATGTI (biotin (position not given))
T5 construct: also called Urotensin II R; GPCR2 (Urotensin II)
T5 peptide: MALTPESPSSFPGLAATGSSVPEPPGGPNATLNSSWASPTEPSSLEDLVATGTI

T6: CYSLTR2 N-terminal disordered region, MERKFMSLQPSISVSEMEPNGTFSNNNSRNCTIENFKREFFP (biotin (position not given))
T6 construct: also called CysLT2; CysLT2r
T6 peptide: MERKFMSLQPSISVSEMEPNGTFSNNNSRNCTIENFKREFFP

T7: TNFRSF13B disordered region peptide, LPPELRRQRSGEVENNSDNSGRYQ (biotin (position not given))
T7 peptide: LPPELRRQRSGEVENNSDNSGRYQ

T8: KCNA6 Epitope QQQEQQPASGGGGQNGQQAMS (biotin (position not given))
T8 peptide: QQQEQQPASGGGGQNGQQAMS

T9: CD40LG Epitope NKEETKKENSFEMQKGDQNPQIAAH (biotin (position not given))
T9 peptide: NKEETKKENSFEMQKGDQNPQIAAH


Key:
[1] = target: T1, KAAG1 disordered region peptide, …; assay: modified sandwich ELISA (scaffold coated, biotinylated peptide, streptavidin-HRP fluorescence)
[2] = target: T2, CD74 disordered region peptide (CLIP), …; assay: modified sandwich ELISA, fluorescence grade (key: >400000, Strong binding)
[3] = target: T3, GMERKFMSLQPSISVSEMEPNGTFSNNNSRNCTIENFKRE …; assay: ELISA, scaffold coated on the plate, biotinylated peptide titrated, streptavidin-HRP fluorescence
Description: (§1) Binder proteins were coated on the surface of a high binding capacity 96 well plate by incubating 100 μL of protein at […] in a coating solution (10 mM Tris pH 8.8, 50 mM NaCl), overnight at 4 C. The next morning, the coating solution was aspirated out and wells were washed once with 300 μL ELISA wash buffer (lx PBS, 0.05% Tween-20) and solution was aspirated out. The wells were blocked with 200 μL of a blocking buffer (1×PBS, 0.05% Tween-20, 3% BSA) at room temperature for 1 hour. After one hour, the blocking solution was aspirated out and 100 μL of biotinylated polypeptide in a binding buffer (1×PBS, 0.05% Tween-20, 0.5% BSA) at various concentrations was added to the appropriate well and incubated for 20 minutes. Peptide solution was aspirated out after 20 minutes and wells were washed 5 times with 300 μL of ELISA wash buffer. To detect the biotinylated peptide, 100 μL of streptavidin-HRP (50 ng/mL) was added to each well and incubated for 1 hour. The wells were subsequently washed 5 times with 300 μL of ELISA wash buffer. 100 μL of QuantaBlu Fluorogenic Peroxidase substrate solution was added to each well, incubated for 30 minutes and reaction stopped by adding 100 μL of stop solution. Fluorescent signal from each well was measured using a Biotek Cytation5 plate reader by exciting the fluorophore at […] and measuring emission at 420 nm. Fluorescent signals were plotted as a function of polypeptide concentration.

[4] = target: T4, CYSLTR2 Epitope SISVSEMEPNGTFSNNNSRNC; assay: as above
Description: as §1

[5] = target: T5, Urotensin-2 receptor (UR-II-R) …; assay: modified sandwich ELISA (scaffold coated, biotinylated peptide, streptavidin-HRP fluorescence)
[6] = target: T1, KAAG1 disordered region peptide, …; assay: ELISA, scaffold coated on the plate, biotinylated peptide titrated, streptavidin-HRP fluorescence
Description: as §1

[7] = target: T6, CYSLTR2 N-terminal disordered region, …; assay: as above
Description: as §1

[8] = target: T7, TNFRSF13B disordered region peptide, …; assay: as above
Description: as §1

[9] = target: T8, KCNA6 Epitope QQQEQQPASGGGGQNGQQAMS; assay: as above
Description: as §1

[10] = target: T9, CD40LG Epitope NKEETKKENSFEMQKGDQNPQIAAH; assay: as above
Description: as §1

Row | Binder | binding result [3] | binding result [4] | binding result [6] | binding result [1] | further results
1 | S134 (designed binder) MVKYHHHHHHGGSENLYFQGMGDTRPRFLWQPKRECHFFNGTERVRFLDRYFYNQEESVRFDSDVGEFRAVTELGRPDAEYWNSQKDILEQARAAVDTYCRHNYGVVESFTVQRRVIKEEHVIIQAEFYLNPDQSGEFMFDFDGDEIFHVDMAKKETVWRLEEFGRFASFEAQGALANIAVDKANLEIMTKRSNYTPITN |  |  |  | no binding (tested: <5000 (fluorescence signal, key)) | 
2 | S077 (designed binder) KPVSKMRMATPLLMQALPMASGGGGSGGGGDTRPRFLWQLKFECHFFNGTERVRLLERCIYNQEESVRFDSDVGEYRAVTELGRPDAEYWNSQKDLLEQRRAAVDTYCRHNYGVGESFTVQRRSGGGIKEEHVIIQAEFYLNPDQSGEFMFDFDGDEIFHVDMAKKETVWRLEEFGRFASFEAQGALANIAVDKANLEIMTKRSNYTGGSHHHHHHLE |  |  |  | no binding (tested: <5000 (fluorescence signal, key)) | fluorescent signal [2]: > 400000 fluorescentsignal
3 | S189 (designed binder) single chain: MGIKEEHVINQAEYCLNPDQSGEFKFDFDGDEIFHVDMAKKETVWRLEEFGRFASFEAQGALAHIAVDCANLEIMTKRSNYTPMGDTRPRFLWQLKYECHFFNGTERVRLNERCIYNQEESVRFDSDVGEYRAVTELGRPDAEQWNSQKDHLEQRRAAVDTKCRHNYGVGESFTVQGGSHHHHHH | binds | binds |  |  | 
4 | S058 (designed binder, Derived from MHC I proteins) GSHSMRYNYTSVSRPGRGEPRFISEGYVDDTQFVRFDSDAASPREEPRAPWIEQEGPEYWDRNTQIYKAQAQTDRESLRNLRGYYNQSEAGSHTLQSMYGCDVGPDGRLLRGHDQYYYDGKDYISLNEDLRSWTAADTAAQITQRKWEAAREAEQRRAYLEGECVEWLRRYLENGKDKLERADGGSHHHHHHLE |  |  | binds |  | binding result [5]: no binding (tested: <5000 (fluorescence signal, key))
5 | S068 (designed binder) GDTRPRFLWQLKFECHFFNGTERVRLLERCIYNQEESVRFDSDVGEYRAVTELGRPDAEYWNSQKDLLEQRRAAVDTYCRHNYGVGESFTVQRRVEPKVTVYPSKTQPLQHHNLLVCSVSGFYPGSIEVRWFRNGQEEKAGVVSTGLIQNGDWTFQTLVMLETVPRSGEVYTCQVEHPSVTSPLTVEWRASGGGGSGGGGSGGGGIKEEHVIIQAEFYLNPDQSGEFMFDFDGDEIFHVDMAKKETVWRLEEFGRFASFEAQGALANIAVDKANLEIMTKRSNYTPITNVPPEVTVLTNSPVELREPNVLICFIDKFTPPVVNVTWLRNGKPVTTGVSETVFLPREDHLFRKFHYLPFLPSTEDVYDCRVEHWGLDEPLLKHWEFDAPSGGSHHHHHHLE |  |  |  | no binding (tested: <5000 (fluorescence signal, key)) | fluorescent signal [2]: > 400000 fluorescentsignal
6 | S143 (designed binder) MGDTRPRFLWQLKFECHFFNGTERVRLLERCIYNQEESVRFDSDVGEYRAVTELGRPDAEYWNSQKDLLEQRRAAVDTYCRHNYGVGESFTVQRRVIKEEHVIIQAEFYLNPDQSGEFMFDFDGDEIFHVDMAKKETVWRLEEFGRFASFEAQGALANIAVDKANLEIMTKRSNYTPTINGGSHHHHHH |  |  |  | no binding (tested: <5000 (fluorescence signal, key)) | fluorescent signal [2]: > 400000 fluorescentsignal

Now from value to binder, other results behind:

Row | binding result [3] | binding result [4] | binding result [6] | Binder | binding result [1] | further results
7 |  |  | no binding (tested: 10000 nM) | S065 (designed binder, Derived from MHC I proteins) GSHSMRYFYTSVSRPGRGEPRFISVGYVDDTQFVRFDSDAASPREEPRAPWIEQEGPEAWDRNTQIYKAQAQTDRESLRNLRGYYNQSEAGSHTLQSMYGCDVGPDGRLLRGHDQYAYDGKDSIALNEDLRSWTAADTAAQITQRYWEAAREAEQRRAYLEGECVEHLRRVLENGKDKLERADGGSHHHHHHLE |  | binding result [5]: no binding (tested: <5000 (fluorescence signal, key))
8 |  |  | no binding (tested: 10000 nM) | S171 (designed binder, Computationally derived scaffold) GDTRPRFLWQLKWECHFYNGTERVRLNERCNYNQEESVRFDSDVGEYRAVTELGRPDAEFSNSQKDNLEQRRAAVDTLCRHNYGVGESFTVQRRSGGGIKEEHVINQAEYYLNPDQSGEFKFDFDGDEIFHVDMAKKETVWRLEEFGRFAIIEAYGALANIAVDKANLEIMTKQSNYT |  | binding result [7]: no binding (tested: 10000 nM)
9 | binds | binds | no binding (tested: 10000 nM) | S193 (designed binder) MGSKARMATGALAQAGGSGGSMIKEEHVINQAEYYLNPDQSGEFKFDFDGDEIFHVDMAKKETVWRLEEFGRFASFEAQGALAHIAVDKANLEIMTKRSNYTPMGDTRPRFLWQLKYECHFFNGTERVRLNERCIYNQEESVRFDSDVGEYRAVTELGRPDAEQWNSQKDHLEQRRAAVDTKCRHNYGVGESFTVQGGSHHHHHH |  | binding result [8]: no binding (tested: 10000 nM); binding result [9]: no binding (tested: 10000 nM); binding result [10]: no binding (tested: 10000 nM)
10 |  |  | no binding (tested: 10000 nM) | S164 (designed binder, Computationally derived scaffold) GIKEEHSIRQNEKYNNPDQSGNFEFHLDGQPIFRVDMQKKRTKWQLEEFGRFASFEAQGALANIAVFKINLEIMTKRSNQSEAGSHSWQLNFTCEFHEGTESVRLSERSYYNQENFVSFNSDVGEYRATTELGRPMAEYVNSQKDTLEQRRAAVDTYCRHNYGVGEYFTVQRR |  | binding result [7]: no binding (tested: 10000 nM)
11 | binds | binds |  | S180 (designed binder) single chain: MKEEHVIIQAEFYLNPDQSGEFMFDFDGDEIFHVDMAKKETVWRLEEFGRFASFEAQGALANIAVDKANLEIMTKRSNYTPITNTRPRFLWQPKRECHFFNGTERVRFLDRYFYNQEESVRFDSDVGEFRAVTELGRPDAEYWNSQKDILEQARAAVDTYCRHNYGVVESFTVQRRVQGGSHHHHHHLE |  | 
12 | binds | binds | no binding (tested: 10000 nM) | S194 (designed binder) MGIKEEHVINQAEYYLNPDQSGEFKFDFDGDEIFHVDMAKKETVWRLEEFGRFASFEAQGALAHIAVDKANLEIMTKRSNYTPMGGGSKARMATGALAQAGGSGGSGDTRPRFLWQLKYECHFFNGTERVRLNERCIYNQEESVRFDSDVGEYRAVTELGRPDAEQWNSQKDHLEQRRAAVDTKCRHNYGVGESFTVQGGSHHHHHH |  | binding result [8]: no binding (tested: 10000 nM); binding result [9]: no binding (tested: 10000 nM); binding result [10]: no binding (tested: 10000 nM)
